Measured values taken from the supplement of paper PMC12042874.
± gives the uncertainty stated by the source.

Experiment: amyloid nucleation score (Sup35N fusion, yeast selection) (log enrichment); library NNK2; higher = more nucleation; inactive = no reads after selection
Summary of the method: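 The nucleation score is the DiMSum log enrichment of output over input reads, centred on the mode score of non-aggregating sequences. Only sequences with 100 or more input reads were scored, using Illumina sequencing of input and output plasmid inserts. Psi-negative yeast expressing Sup35N fused to peptides of 20 random codons were induced 24 hours with 100 μM copper sulfate and grown 7 days at 30°C on medium lacking adenine and uracil.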

RQVAPMHLYIYSACNGAKNR
amyloid nucleation score: 7.095 ± 0.062

YTYSYATLNMWFQLT
amyloid nucleation score: 6.59 ± 0.033

WELVSGVYVTGCTFSSEDVQ
amyloid nucleation score: -0.785 ± 0.29

KSIVNL
amyloid nucleation score: 0.465 ± 0.41

IAKGPGALYRSKMRWSGFVL
amyloid nucleation score: -0.817 ± 1

RDQFTISETRNAVDMDWKSK
amyloid nucleation score: 0.007 ± 1.1

FYPSWNLYRVRGQPYLNRVR
amyloid nucleation score: -0.352 ± 1.1

LVEVIGFVRVSEPISTHA
amyloid nucleation score: 0.884 ± 0.33

STSLVTIPCGGFGFKYSANP
amyloid nucleation score: 0.171 ± 0.33

NPLQRTVYWFIIKRDCFHSV
amyloid nucleation score: -1.46 ± 0.45

TSVYPRGYFPVSCACYFLLE
amyloid nucleation score: -1.3 ± 0.48

CGQRCPKC
amyloid nucleation score: 3.81 ± 0.063

KMDFAFEA
amyloid nucleation score: -0.202 ± 0.8

MWWFYGSILHRGDRT
amyloid nucleation score: 1.58 ± 0.23

ARLSWWGS
amyloid nucleation score: -0.184 ± 0.29

ASSWGVNGRVNKISRTG
amyloid nucleation score: 1.32 ± 0.18

YNSTALKVSWRVRLGPWNWI
amyloid nucleation score: -0.06 ± 1.1

GSPGIETGIAAEEWNGGW
amyloid nucleation score: 0.865 ± 0.5

SGVLSLGGVQSWNSLLRWDN
amyloid nucleation score: -0.476 ± 0.44

CCWLAMRVRFTMASKLPNFE
amyloid nucleation score: 3.34 ± 0.083

RALCTKVRTLLCFYLGVLWS
amyloid nucleation score: 0.903 ± 0.74

YYLSNPRGVHISIYREHNMS
amyloid nucleation score: 6.392 ± 0.043

TFGYCISLMTLTFVH
amyloid nucleation score: -0.239 ± 0.28

LLDWTLLSNST
amyloid nucleation score: inactive

MGLSWLSLLLKCRCQWACKL
amyloid nucleation score: 0.306 ± 0.65

LAFTFRSTRRTTSHSEVSSS
amyloid nucleation score: 1.38 ± 0.43

NFMSYIDKRWYQWLVSDRIS
amyloid nucleation score: 5.413 ± 0.047

RYFSISAFMVMGTVNVGGYW
amyloid nucleation score: 4.18 ± 0.045

KLWTISVDHPGII
amyloid nucleation score: -1.45 ± 1

QVWFYIVVMLVTLTGLGQVG
amyloid nucleation score: 1.16 ± 0.61

FSEPWKWYYADLVFLSVTWL
amyloid nucleation score: inactive

FDHMWLSGQVQWFLNYTTSL
amyloid nucleation score: inactive

FIRWSLWR
amyloid nucleation score: -0.012 ± 1.1

IMGHYVYDVVR
amyloid nucleation score: -0.352 ± 0.36

SRGLSGNSSASLEKLNRL
amyloid nucleation score: 0.072 ± 0.63

KYSAQIL
amyloid nucleation score: 0.172 ± 0.33

YIGSVIIWRRKVSRFHLGEA
amyloid nucleation score: 0.102 ± 0.79

LAYIARR
amyloid nucleation score: -0.035 ± 0.76

HGYSWCCFHVGS
amyloid nucleation score: 8.926 ± 0.054

SSVHPPEPRINFFSSDGCIA
amyloid nucleation score: inactive

VGYFLKAMETCVTSLL
amyloid nucleation score: inactive

YIPIYMGWTGRNRTVMH
amyloid nucleation score: inactive

FIRSIHCVKMDELAWLLSVS
amyloid nucleation score: 0.252 ± 0.46

SECMIRFVNYADGTFNIGHS
amyloid nucleation score: -0.22 ± 0.37

YAIKMGFASQVSVEFRWLYK
amyloid nucleation score: -0.244 ± 0.28

TNLMAFLRPFAVVTRND
amyloid nucleation score: -0.355 ± 0.76

ISRWTSIVFKRLNGRDKEMK
amyloid nucleation score: 4.29 ± 0.088

EMSRMASNISRMKVSRASKH
amyloid nucleation score: 1.15 ± 0.38

RILYMMDFSFGANSIYFYWN
amyloid nucleation score: 4.4 ± 0.065

MYTSLLVYML
amyloid nucleation score: 3.78 ± 0.048

GALRPAFLSCKMVWR
amyloid nucleation score: 0.528 ± 0.49

AFRMLITGPGNS
amyloid nucleation score: -1.07 ± 0.49

VIAGDTQGMSRGWFLGVLPW
amyloid nucleation score: inactive

YIHVVNTVSAVGVRRGSVGT
amyloid nucleation score: 0.031 ± 0.76

YDYEEFRSVLKWIAGRIYVD
amyloid nucleation score: -1.27 ± 0.48

RRSFTTADTCLLIS
amyloid nucleation score: -0.695 ± 0.54

GLTLMSR
amyloid nucleation score: 1.06 ± 0.12

SGYCQDCSSGPFESDGINIS
amyloid nucleation score: -0.321 ± 1

SPTGPMYRNLLSKKPYVR
amyloid nucleation score: -0.909 ± 0.35

TICGSCT
amyloid nucleation score: 0.045 ± 0.79

LKRYKVRQFSTCLWAGAYSQ
amyloid nucleation score: 0.407 ± 0.23

PFQVFILHYA
amyloid nucleation score: 6.356 ± 0.042

FCTLCFSLCQ
amyloid nucleation score: 1.82 ± 0.23

RCRPFFPRNVFSRVENIYHA
amyloid nucleation score: -0.602 ± 1.1

KKSYFTSLTLLFMTPFSLSY
amyloid nucleation score: inactive

LRYVEGHGKDITSGGSLEEH
amyloid nucleation score: 1.41 ± 0.14

LRLSHMFLVNMSWGNVINLC
amyloid nucleation score: 3.28 ± 0.091

VFVWIGLGWVTSLLSLYTNG
amyloid nucleation score: inactive

FFYLRFAQWQLCRTFNAQGM
amyloid nucleation score: -0.184 ± 1.1

SKTYRPCARLSFEHGRCNLV
amyloid nucleation score: 3.68 ± 0.11

STSFIL
amyloid nucleation score: -0.718 ± 0.76

NAGVYLFYMCICYVKYFFYM
amyloid nucleation score: -0.87 ± 0.78

NNSPVSPDGCLLGSSVQYWY
amyloid nucleation score: -0.375 ± 1.1

GNVYHLPDCLNLTWVLKIKN
amyloid nucleation score: -0.944 ± 0.39

TIVYWSTTRTTAPGDDRESV
amyloid nucleation score: 5.31 ± 0.062

NMCQPMCVIVDWIIFISCVG
amyloid nucleation score: 2.49 ± 0.063

ALENNIDPLGELASVPGCSG
amyloid nucleation score: 0.843 ± 0.27

CVFAHFCCLFASMMPCKFSW
amyloid nucleation score: -0.127 ± 1

FTIALIYTFLLISCLLGMSV
amyloid nucleation score: 0.164 ± 1.1

YWTGGLHNEHLSMHVSVYSN
amyloid nucleation score: -0.527 ± 1.1

LQVMMYFWDEFVTKLEKVSG
amyloid nucleation score: -0.809 ± 1.1

ISSNKGFVEVAVSWVPRDVR
amyloid nucleation score: 0.744 ± 0.38

SLRLCLDTMEFRVFKNLGRV
amyloid nucleation score: 1.45 ± 0.099

FTNVSEIWMSFGHNPESGLA
amyloid nucleation score: 2.92 ± 0.074

KTLWPGTWGGLITRVWWYTR
amyloid nucleation score: 0.471 ± 0.18
